The assay has as its target T1, GST-Brm 304-747 (Drosophila, UniProt P25439 304-747).
T1 construct: in pGEX5X-1; also called middle part of Brm protein; source: E. coli Rosetta2, extracted and dialysed
The experiment in a line: pull-down; GST-Brm fragments as baits, MBP-Tctp as prey, 5 micrograms each; PDB (20 mM Tris-HCl pH 7.5, 150 mM NaCl, 0.5 mM EDTA, 10% glycerol, 0.1% Triton X-100, 1 mM DTT) with 0.2% BSA, 2-3 h at 4 °C; western blot with anti-GST and anti-MBP; proteins extracted from E. coli and dialysed. The note with it: both partners purified.

Consider 1 molecule from publication PMC5056459, “Antagonistic roles of Drosophila Tctp and Brahma in chromatin remodelling and stabilizing repeated sequences” (Nature Communications, 2016).

T1 sequence (P25439 304-747): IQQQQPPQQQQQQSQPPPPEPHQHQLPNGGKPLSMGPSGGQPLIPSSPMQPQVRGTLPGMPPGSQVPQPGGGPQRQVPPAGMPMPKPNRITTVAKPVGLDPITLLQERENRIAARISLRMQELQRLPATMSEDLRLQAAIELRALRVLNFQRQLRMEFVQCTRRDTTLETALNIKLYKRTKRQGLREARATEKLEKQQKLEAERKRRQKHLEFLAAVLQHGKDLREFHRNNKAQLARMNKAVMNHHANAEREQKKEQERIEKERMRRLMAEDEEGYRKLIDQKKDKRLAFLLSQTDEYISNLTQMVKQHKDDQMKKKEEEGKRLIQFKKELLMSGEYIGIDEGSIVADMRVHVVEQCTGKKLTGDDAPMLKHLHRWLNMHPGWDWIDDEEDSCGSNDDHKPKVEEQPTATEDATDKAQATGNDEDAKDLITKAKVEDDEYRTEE

B1: MBP-Tctp (natural protein, Drosophila, UniProt Q9VGS2 1-172, looked up)
chain: MKIYKDIITGDEMFADTYKMKLVDDVIYEVYGKLITRQGDDIKLEGANASAEEADEGTDITSESGVDVVLNHRLTECFAFGDKKSYTLYLKDYMKKVLAKLEEKSPDQVDIFKTNMNKAMKDILGRFKELQFFTGESMDCDGMVALVEYREINGDSVPVLMFFKHGLEEEKC
notes: Drosophila Tctp in pMAL-c2; also called MBP-tagged Tctp; source: E. coli Rosetta2, extracted and dialysed
In the case of B1, the binding result is listed as “binds”.
